In patent US20100098708A1 (AstraZeneca / MedImmune, published 2010):
Values joined by “and” are separate entries in the source; they are usually repeats but may differ in a detail not shown here. Equal entries are not always repeated.

B1: A4B4 IgG (antibody, V domains shown)
VH: QVTLRESGPALVKPTQTLTLTCTFSGFSLSTAGMSVGWIRQPPGKALEWLADIWWDDKKHYNPSLKDRLTISKDTSKNQVVLKVTNMDPADTATYYCARDMIFNFYFDVWGQGTTVTVSS
VL: DIQMTQSPSTLSASVGDRVTITCSASSRVGYMHWYQQKPGKAPKLLIYDTFFLDSGVPSRFSGSGSGTEFTLTISSLQPDDFATYYCFQGSGYPFTFGGGTKVEIKR
notes: IgG1/kappa
B2: P11d4 Fab (Fab, V domains shown)
VH: QVTLRESGPALVKPTQTLTLTCTFSGFSLSTPGMSVGWIRQPPGKALEWLADIWWDGKKHYNPSLKDRLTISKDTSKNQVVLKVTNMDPADTATYYCARDMIFNWYFDVWGQGTTVTVSS
VL: DIQMTQSPSTLSASVGDRVTITCSPSSRVGYMHWYQQKPGKAPKLLIYDTMRLASGVPSRFSGSGSGTEFTLTISSLQPDDFATYYCFQGSGYPFTFGGGTKVEIK
notes: Fab
B3: AFFF(1) IgG (antibody, V domains shown)
VH: QVTLRESGPALVKPTQTLTLTCTFSGFSLSTAGMSVGWIRQPPGKALEWLADIWWDDKKDYNPSLKSRLTISKDTSKNQVVLKVTNMDPADTATYYCARSMITNFYFDVWGQGTTVTVSS
VL: DIQMTQSPSTLSASVGDRVTITCSASSSVGYMHWYQQKPGKAPKLLIYDTFKLASGVPSRFSGSGSGTEFTLTISSLQPDDFATYYCFQGSFYPFTFGGGTKVEIKR
notes: IgG1/kappa
B4: 1X-493L1FR Fab (Fab, V domains shown)
VH: QVTLRESGPALVKPTQTLTLTCTFSGFSLSTSGMSVGWIRQPPGKALEWLADIWWDDKKDYNPSLKSRLTISKDTSKNQVVLKVTNMDPADTATYYCARSMITNWYFDVWGQGTTVTVSS
VL: DIQMTQSPSTLSASVGDRVTITCSASSSVGYMHWYQQKPGKAPKLLIYDTSKLASGVPSRFSGSGSGTEFTLTISSLQPDDFATYYCFQGSGYPFTFGGGTKVEIK
notes: also called IX-493L1FR
B5: AFFF(1) Fab (Fab, V domains shown)
VH: QVTLRESGPALVKPTQTLTLTCTFSGFSLSTAGMSVGWIRQPPGKALEWLADIWWDDKKDYNPSLKSRLTISKDTSKNQVVLKVTNMDPADTATYYCARSMITNFYFDVWGQGTTVTVSS
VL: DIQMTQSPSTLSASVGDRVTITCSASSSVGYMHWYQQKPGKAPKLLIYDTFKLASGVPSRFSGSGSGTEFTLTISSLQPDDFATYYCFQGSFYPFTFGGGTKVEIK
notes: Fab; also called AHH(1)
B6: P12f2 Fab (Fab, V domains shown)
VH: QVTLRESGPALVKPTQTLTLTCTFSGFSLSTPGMSVGWIRQPPGKALEWLADIWWDDKKHYNPSLKDRLTISKDTSKNQVVLKVTNMDPADTATYYCARDMIFNFYFDVWGQGTTVTVSS
VL: DIQMTQSPSTLSASVGDRVTITCSLSSRVGYMHWYQQKPGKAPKLLIYDTFYLSSGVPSRFSGSGSGTEFTLTISSLQPDDFATYYCFQGSGYPFTFGGGTKVEIK
notes: Fab
B7: A1e9 Fab (Fab, V domains shown)
VH: QVTLRESGPALVKPTQTLTLTCTFSGFSLSTAGMSVGWIRQPPGKALEWLADIWWDGKKHYNPSLKDRLTISKDTSKNQVVLKVTNMDPADTATYYCARDMIFNWYFDVWGQGTTVTVSS
VL: DIQMTQSPSTLSASVGDRVTITCSLSSRVGYMHWYQQKPGKAPKLLIYDTFKLSSGVPSRFSGSGSGTEFTLTISSLQPDDFATYYCFQGSGYPFTFGGGTKVEIK
notes: Fab; also called Ale9
B8: A12a6 Fab (Fab, V domains shown)
VH: QVTLRESGPALVKPTQTLTLTCTFSGFSLSTAGMSVGWIRQPPGKALEWLADIWWDGKKDYNPSLKDRLTISKDTSKNQVVLKVTNMDPADTATYYCARDMIFNFYFDVWGQGTTVTVSS
VL: DIQMTQSPSTLSASVGDRVTITCSASSRVGYMHWYQQKPGKAPKLLIYDTFKLSSGVPSRFSGSGSGTEFTLTISSLQPDDFATYYCFQGSGYPFTFGGGTKVEIK
notes: Fab
B9: A13a11 Fab (Fab, V domains shown)
VH: QVTLRESGPALVKPTQTLTLTCTFSGFSLSTAGMSVGWIRQPPGKALEWLADIWWDDKKHYNPSLKDRLTISKDTSKNQVVLKVTNMDPADTATYYCARDMIFNWYFDVWGQGTTVTVSS
VL: DIQMTQSPSTLSASVGDRVTITCSPSSRVGYMHWYQQKPGKAPKLLIYDTYRHSSGVPSRFSGSGSGTEFTLTISSLQPDDFATYYCFQGSGYPFTFGGGTKVEIK
notes: Fab
B10: A13c4 Fab (Fab, V domains shown)
VH: QVTLRESGPALVKPTQTLTLTCTFSGFSLSTAGMSVGWIRQPPGKALEWLADIWWDGKKSYNPSLKDRLTISKDTSKNQVVLKVTNMDPADTATYYCARDMIFNFYFDVWGQGTTVTVSS
VL: DIQMTQSPSTLSASVGDRVTITCSLSSRVGYMHWYQQKPGKAPKLLIYDTMYQSSGVPSRFSGSGSGTEFTLTISSLQPDDFATYYCFQGSGYPFTFGGGTKVEIK
notes: Fab

molecular target: Bac-F (respiratory syncytial virus); experiment: BIAcore, (1:1)
Sequence (P03420 26-524): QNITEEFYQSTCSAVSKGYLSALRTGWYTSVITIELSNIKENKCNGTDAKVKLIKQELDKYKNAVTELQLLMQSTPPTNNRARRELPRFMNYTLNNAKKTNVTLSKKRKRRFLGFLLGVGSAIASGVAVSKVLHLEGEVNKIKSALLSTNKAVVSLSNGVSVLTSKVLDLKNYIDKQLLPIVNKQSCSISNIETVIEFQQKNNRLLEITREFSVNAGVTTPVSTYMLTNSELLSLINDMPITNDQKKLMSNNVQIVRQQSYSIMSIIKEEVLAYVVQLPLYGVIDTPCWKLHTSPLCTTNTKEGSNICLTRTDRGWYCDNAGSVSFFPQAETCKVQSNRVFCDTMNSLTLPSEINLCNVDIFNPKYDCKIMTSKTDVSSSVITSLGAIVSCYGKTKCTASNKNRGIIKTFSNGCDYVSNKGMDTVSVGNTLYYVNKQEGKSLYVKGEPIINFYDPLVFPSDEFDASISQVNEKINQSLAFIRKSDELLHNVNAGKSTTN

With B1 as the binder, how does the Kd read?
The Kd was 0.02 nM.

And the koff?
Its koff is 1.06e-05 s⁻¹.

And the kon?
The kon was 434000 M⁻¹ s⁻¹.

And the “number in parentheses after KD (ratio to palivizumab = 1)” value?
Its value is 195 fold.

molecular target: RSV F protein (immobilised antigen of Example 6.1) (respiratory syncytial virus); experiment: BIAcore
Sequence (P03420 26-524): as above

For B2, which koff is on record?
Its koff is 0.000717 s⁻¹.

What about the kon of the same binder?
Its kon is 570000 M⁻¹ s⁻¹ and 572000 M⁻¹ s⁻¹.

With B3 as the binder, how does the koff read?
Its koff is 0.000274 s⁻¹ and 0.000266 s⁻¹ and 0.000206 s⁻¹.

What about the kon of the same binder?
The kon was 108000 M⁻¹ s⁻¹ and 96000 M⁻¹ s⁻¹ and 124000 M⁻¹ s⁻¹.

For B4, which koff is on record?
Its koff is 0.00065 s⁻¹.

What about the kon of the same binder?
Its kon is 185000 M⁻¹ s⁻¹.

What does the source list for B5?
koff: 0.000245 s⁻¹ and 0.000446 s⁻¹ and 0.000268 s⁻¹; kon: 212000 M⁻¹ s⁻¹ and 156000 M⁻¹ s⁻¹ and 186000 M⁻¹ s⁻¹

How did the koff turn out when B6 was run?
The koff was 0.000282 s⁻¹.

What about the kon of the same binder?
Its kon is 663000 M⁻¹ s⁻¹.

How did the koff turn out when B7 was run?
Its koff is 0.000453 s⁻¹.

And the kon?
The kon was 790000 M⁻¹ s⁻¹.

For B8, which koff is on record?
Its koff is 0.00023 s⁻¹.

And the kon?
The kon was 743000 M⁻¹ s⁻¹.

What does the source list for B9?
koff: 0.00025 s⁻¹; kon: 735000 M⁻¹ s⁻¹

Which koff does the source give for B10 here?
The koff was 0.00028 s⁻¹.

What about the kon of the same binder?
The kon was 781000 M⁻¹ s⁻¹ and 735000 M⁻¹ s⁻¹.

molecular target: F protein of RSV Long strain on infected HEp-2 cells (respiratory syncytial virus Long strain, UniProt P12568 26-574); experiment: cell-based or functional assay
Sequence (P12568 26-574): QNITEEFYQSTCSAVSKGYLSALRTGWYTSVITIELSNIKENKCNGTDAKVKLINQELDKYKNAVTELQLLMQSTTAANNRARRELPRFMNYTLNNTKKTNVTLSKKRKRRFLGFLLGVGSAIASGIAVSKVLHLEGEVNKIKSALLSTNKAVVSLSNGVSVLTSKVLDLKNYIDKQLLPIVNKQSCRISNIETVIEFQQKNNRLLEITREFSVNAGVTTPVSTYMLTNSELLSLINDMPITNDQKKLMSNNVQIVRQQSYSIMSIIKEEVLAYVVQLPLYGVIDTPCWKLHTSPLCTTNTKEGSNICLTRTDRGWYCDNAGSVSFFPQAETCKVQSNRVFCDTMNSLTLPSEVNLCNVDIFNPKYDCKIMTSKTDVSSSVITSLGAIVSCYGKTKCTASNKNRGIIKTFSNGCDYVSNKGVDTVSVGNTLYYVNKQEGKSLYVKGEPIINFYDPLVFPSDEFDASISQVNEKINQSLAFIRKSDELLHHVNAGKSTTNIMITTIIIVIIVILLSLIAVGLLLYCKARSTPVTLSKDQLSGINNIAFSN

With B2 as the binder, how does the “RSV microneutralization IC50” value read?
Its value is 0.292 µg/ml and 5.84 nM.
